Assay [1] addresses T1, interleukin-33 of rhesus monkeys (rhesus monkey, UniProt F7DLG4 112-269).
T1 construct: also called rhesus monkey IL-33
T1 sequence: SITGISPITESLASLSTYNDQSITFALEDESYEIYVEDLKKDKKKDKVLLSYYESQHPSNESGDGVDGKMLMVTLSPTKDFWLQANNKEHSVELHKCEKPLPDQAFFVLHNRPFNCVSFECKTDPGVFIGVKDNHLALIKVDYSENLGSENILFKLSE
Kind of assay: SPR (Biacore T200), antibody captured on Protein A chip.

Assay [2] addresses T2, human interleukin-33 (hIL-33) (human, UniProt O95760 112-270).
T2 construct: The immunogen was bought from Novoprotein; also called recombinant human interleukin-33
T2 sequence: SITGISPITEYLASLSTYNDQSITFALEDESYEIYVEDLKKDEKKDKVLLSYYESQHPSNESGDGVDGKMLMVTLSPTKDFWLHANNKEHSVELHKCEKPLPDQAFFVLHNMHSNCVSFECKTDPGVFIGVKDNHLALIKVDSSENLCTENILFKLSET
Kind of assay: SPR (Biacore T200, 25 C), antibody captured on Protein A chip, antigen as analyte, 1:1 model. The protocol: Commercialized Protein A chip was used to immobilize an appropriate amount of antibody by capture method, so that the Rmax was about 50 RU, and the capture flow rate was 10 μl/min. The antigen was diluted by gradient, the flow rate of the instrument was switched to 30 μl/min, and the antigen flowed through the reference channel and the channel of the immobilized antibody in order of concentration from low to high, and the buffer was used as a negative control. After each binding and dissociation, the chip was regenerated with glycine at pH 1.5. The 1:1 binding model in Kinetics option was selected for fitting using the analysis software that comes with the instrument, and the binding rate constant kₐ, the dissociation rate constant kd and the equilibrium dissociation constant KD value of the antibody were calculated.
In addition, the affinity of QX007N (HZD78-70) and Etokimab/ANB020, a monoclonal antibody against human interleukin-33 developed by AnaptysBio were compared, and the detection method for known antibodies was the same as that for QX007N. Particularly, Etokimab/ANB020 was self-made by constructing an expression plasmid according to the APE4909 sequence provided by the patent WO2015106080A2, and transiently transfecting ExpiCHO-S cells.

Assay [3] deals with T3, natural human interleukin-33 (human) (UniProt O95760).
T3 sequence (looked up): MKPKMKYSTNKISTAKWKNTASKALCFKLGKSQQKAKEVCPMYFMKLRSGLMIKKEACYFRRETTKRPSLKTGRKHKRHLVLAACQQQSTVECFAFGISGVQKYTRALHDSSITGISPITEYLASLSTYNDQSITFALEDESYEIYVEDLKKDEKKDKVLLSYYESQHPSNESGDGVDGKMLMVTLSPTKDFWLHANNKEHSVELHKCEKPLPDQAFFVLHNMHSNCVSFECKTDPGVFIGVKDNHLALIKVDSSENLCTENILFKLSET
Description: cell-based or functional assay.

The target of assay [4] is T2, human interleukin-33 (hIL-33). Description: cell-based or functional assay.

B1: QX007N (HZD78-70) (antibody, human IgG1, kappa, V domains shown)
VH: EVQLVESGGGLVQPGGSLRLSCAASGFSLSSYHMIWVRQAPGKGLEWVGVIYPNSNIYYATWAKGRFTISRDNSKNTLYLQMNSLRAEDTAVYYCARTIYVHVYSALSIWGQGTLVTVSS
VL: AFQMTQSPSSVSASVGDRVTITCQASESVLNEVSWYQQKPGKAPKLLIYFASKLASGVPSRFSGSGSGTDFTLTISSLQPEDFATYYCQQDWSMDNIDNAFGGGTKVEIKR
notes: Humanized rabbit antibody, expressed in ExpiCHO-S cells and purified with Protein A; also called humanized 78#
B1: in assay [1], the binding result is given as “no binding”. Also, in assay [2], the Kd amounted to 1.23 nM, the koff was 0.000481 s⁻¹ and the on-rate (kon) was 392000 M⁻¹ s⁻¹.

B2: Etokimab/ANB020 (antibody, INN chains, looked up, V domains shown)
VH: QVQLMQSGAEVKKPGASVKVSCKASGYTFTSYWMHWVRQAPGQGLEWMGTIYPRNSNTDYNQKFKARVTMTRDTSTSTVYMELSSLRSEDTAVYYCARPLYYYLTSPPTLFWGQGTLVTVSS
VL: DIQLTQSPSFLSASVGDRVTITCKASQDVGTAVAWYQQKPGKAPKLLIYWASTRHTGVPSRFSGSGSGTEFTLTISSLQPEDFATYYCQQAKTYPFTFGSGTKLEIK
With B2, the inhibition of NF-KB/AP-1 signal transduction in HEK Blue IL-33 cells induced by natural human interleukin-33 (SEAP, OD630nm) in assay [3] worked out at 2.5 ng/mL. Also, in assay [4], the inhibition of NF-KB/AP-1 signal transduction in HEK Blue IL-33 cells induced by recombinant human interleukin-33 (SEAP, OD630nm) worked out at 6.05 ng/mL; the neutralization of IFN-gamma release from human whole blood induced by recombinant human interleukin-33 was determined as 31.9 ng/mL; the neutralization of IL-5 release from KU812 cells induced by recombinant human interleukin-33 (IL-5 ELISA) was determined as 44 ng/mL. In assay [2], this molecule showed a Kd of 0.869 nM, a koff of 0.000369 s⁻¹ and a kon of 424000 M⁻¹ s⁻¹.

Source of the values: US20240309081A1 (QYUNS THERAPEUTICS, published 2024).
